The values that follow come from article PMC9239988 (Nature Communications, 2022).

Data set [1] concerns the target tick-borne encephalitis virus (TBEV) pr, the pr part of prM (aa 1-88) (tick-borne encephalitis virus strain Neudoerfl). Briefly: SPR; […] ([…] to 7.8 nM), […], pH 5.5; 1:1 model; […]. A general note: In SPR one partner is held on a chip, and binding of the other changes the refractive index at the surface.
The data set “SEC-MALS” concerns the molecule itself. Briefly: SEC-MALS.

As usually defined, the Kd is the constant that tells how readily two partners part at equilibrium. Lower therefore signals higher affinity. As usually defined, the stoichiometry N is the number of molecules, sites or subunits per partner or assembly.

The molecule “tick-borne encephalitis virus (TBEV) soluble envelope protein E (sE) (from UniProt P14336 281-680) (domain or fragment)” had a Kd in data set [1] of 0.066 to 10 µM.

B1: tick-borne encephalitis virus (TBEV) soluble envelope protein E (sE) (domain or fragment)
chain: SRCTHLENRDFVTGTQGTTRVTLVLELGGCVTITAEGKPSMDVWLDAIYQENPAKTREYCLHAKLSDTKVAARCPTMGPATLAEEHQGGTVCKRDQSDRGWGNHCGLFGKGSIVACVKAACEAKKKATGHVYDANKIVYTVKVEPHTGDYVAANETHSGRKTASFTISSEKTILTMGEYGDVSLLCRVASGVDLAQTVILELDKTVEHLPTAWQVHRDWFNDLALPWKHEGAQNWNNAERLVEFGAPHAVKMDVYNLGDQTGVLLKALAGVPVAHIEGTKYHLKSGHVTCEVGLEKLKMKGLTYTMCDKTKFTWKRAPTDSGHDTVVMEVTFSGTKPCRIPVRAVAHGSPDVNVAMLITPNPTIENNGGGFIEMQLPPGDNIIYVGELSHQWFQKGSSIG
Take B1: in the data set “SEC-MALS”, the “stoichiometry N” value turned out to be 2.
